Source: patent publication US7514534 (DYAX, dated 2009)

T1: MMP-26 catalytic domain, tagged with hexa-histidine (human, UniProt Q9NRE1 90-261)
T1 construct: the forward primer adds Met-Ala before it; also called MMP-26 target protein; Matrilysin-2; not shown: Also any N-terminal residues added by the forward primer (Met-Ala according to our card; the primers were not visible to me)
T1 sequence: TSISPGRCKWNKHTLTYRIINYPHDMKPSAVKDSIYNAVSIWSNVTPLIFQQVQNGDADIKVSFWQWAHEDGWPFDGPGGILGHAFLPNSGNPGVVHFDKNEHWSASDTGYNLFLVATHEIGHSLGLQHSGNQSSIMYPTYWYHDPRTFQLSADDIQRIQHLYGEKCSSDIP


Tests used:
MMP-3 = target: T2, MMP-3 (UniProt P08254 100-477, limits assumed); test: cross-reactivity ELISA on coated MMP
T2 construct: also called stromelysin-1
T2 sequence (P08254 100-477 limits assumed): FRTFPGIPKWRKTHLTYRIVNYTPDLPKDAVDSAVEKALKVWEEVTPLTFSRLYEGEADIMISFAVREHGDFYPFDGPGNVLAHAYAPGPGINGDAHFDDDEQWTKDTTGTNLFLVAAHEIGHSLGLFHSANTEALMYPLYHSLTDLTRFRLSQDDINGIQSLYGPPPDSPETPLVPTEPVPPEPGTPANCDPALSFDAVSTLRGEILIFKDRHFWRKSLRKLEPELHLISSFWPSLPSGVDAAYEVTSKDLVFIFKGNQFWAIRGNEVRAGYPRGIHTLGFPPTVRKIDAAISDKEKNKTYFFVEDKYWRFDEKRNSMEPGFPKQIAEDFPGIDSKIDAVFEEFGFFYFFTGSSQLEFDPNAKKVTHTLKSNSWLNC
Procedure: (§1) Twenty-one of the reformatted MMP-26 antibodies were tested for MMP cross reactivity by ELISA analysis. MMP-3, MMP-7, MMP-9, and MMP-12 were coated onto Immulon 2 HB 96-well plates at a concentration of 1 μg/ml for 1 hour at 37° C. The plates were blocked with PBS-T containing 5% (w/v) nonfat dry milk for thirty minutes and subsequently washed with PBS-T. Each antibody was tested for reactivity to all of the above mentioned MMPs at a concentration of 2 μg/ml with an incubation time of 1 hour. Bound antibody was detected with an HRP-conjugated anti-human secondary antibody (Table 3, NT=not tested.).

MMP-9 = target: T3, MMP-9 (UniProt P14780 107-707, limits assumed); test: cross-reactivity ELISA on coated MMP
T3 construct: also called gelatinase
T3 sequence (P14780 107-707 limits assumed): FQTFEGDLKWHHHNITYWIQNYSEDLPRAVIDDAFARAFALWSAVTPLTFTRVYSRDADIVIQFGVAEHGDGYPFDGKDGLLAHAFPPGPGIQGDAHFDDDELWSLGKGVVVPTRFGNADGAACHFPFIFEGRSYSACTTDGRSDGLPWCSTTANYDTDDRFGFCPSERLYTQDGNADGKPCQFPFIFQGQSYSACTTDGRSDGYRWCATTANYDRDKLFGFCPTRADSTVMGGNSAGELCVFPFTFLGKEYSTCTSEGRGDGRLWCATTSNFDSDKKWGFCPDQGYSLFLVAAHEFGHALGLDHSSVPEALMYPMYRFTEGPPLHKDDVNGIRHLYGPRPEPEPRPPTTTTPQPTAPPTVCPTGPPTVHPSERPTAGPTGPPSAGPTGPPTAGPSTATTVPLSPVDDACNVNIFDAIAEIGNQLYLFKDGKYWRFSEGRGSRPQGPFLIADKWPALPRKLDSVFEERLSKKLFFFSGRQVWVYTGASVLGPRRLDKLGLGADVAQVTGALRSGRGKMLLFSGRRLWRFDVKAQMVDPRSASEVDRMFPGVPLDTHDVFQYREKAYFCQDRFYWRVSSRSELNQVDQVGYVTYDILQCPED
Procedure: as §1

[1] = target: T1, MMP-26 catalytic domain, tagged with …; test: bead-based ELISA, MMP-26 on nickel beads, IgG4 culture supernatant
Procedure: Reformatted and expressed full-length MMP-26 binding IgG4 antibodies were tested for specificity in a bead-based ELISA. Approximately 1.25 μg of MMP-26 protein was bound to nickel-coated magnetic beads (Novagen) which had been pre-blocked with phosphate buffered saline containing 5% (w/v) nonfat dry milk and 0.05% (v/v) Tween-20. The beads were washed in phosphate buffered saline containing 0.05% (v/v) Tween-20 (PBS-T) and 100 uls of unpurified cell culture supernatant containing transiently produced MMP-26-binding antibodies was added and incubated on a rotator for sixty minutes. The beads were washed with PBS-T and MMP-26-binding antibodies were detected with an HRP-conjugated anti-human secondary antibody. Data is expressed in fold over background where background consists of beads, blocking agent, and culture supernatant containing target antibody (Table 2; in this table, Results shown as fold over background (F>B) where background consists of beads, blocking agent, and culture supernatant).

| binding result (MMP-3) | binding result (MMP-9) | F > B (fold over background) [1] [fold over background] | Binder |
| --- | --- | --- | --- |
| no binding (tested: 2 µg/ml) | no binding (tested: 2 µg/ml) | 3 | D01 (antibody, V domains shown, whole human IgG4) VH: EVQLLESGGGLVQPGGSLRLSCAASGFTFSMYLMFWVRQAPGKGLEWVSVISSSGGETSYADSVKGRFTISRDNSKNTLYLQMNSLRAEDTAVYYCARQVSDWTRLYSFDYWGQGTLVTVSS VL: QSELTQPPSASGTPGQRITISCSGSSSNIGSNYVYWYQQFPETAPKLLISRNDQRPSGVPDRFSGSKSGTSASLAISGLRSEDEADYYCASWDDSLSGVVFGGGTKLTVLG |
| no binding (tested: 2 µg/ml) | no binding (tested: 2 µg/ml) | 5.4 | A06 (antibody, human IgG4, V domains shown, whole human IgG4) VH: EVQLLESGGGLVQPGGSLRLSCAASGFTFSPYHMGWVRQAPGKGLEWVSGIYPSGGWTNYADSVKGRFTISRDNSKNTLYLQMNSLRAEDTAVYYCARDGYSSGWFRYWGQGTLVTVSS VL: not shown |
| no binding (tested: 2 µg/ml) | no binding (tested: 2 µg/ml) | 3.5 | D06 (antibody, human IgG4, V domains shown, whole human IgG4) VH: EVQLLESGGGLVQPGGSLRLSCAASGFTFSGYIMEWVRQAPGKGLEWVSVIVSSGGFTMYADSVKGRFTISRDNSKNTLYLQMNSLRAEDTAVYYCARVGDSKGGYYLDYWGQGTLVTVSS VL: DIQMTQSPSSLSASVGDRVTITCRTSQIINTYLNWYQQKPGKAPKLLIYAASTLQGGVPSRFSGSGSGTDFTLTIKSLQPDDFATYYCQQSYTSPRTFGQGTKVEIKR |
| no binding (tested: 2 µg/ml) | no binding (tested: 2 µg/ml) | 2.6 | C11 (antibody, human IgG4, V domains shown, whole human IgG4) VH: EVQLLESGGGLVQPGGSLRLSCAASGFTFSEYPMWWVRQAPGKGLEWVSWIYPSGGNTDYADSVKGRFTISRDNSKNTLYLQMNSLRAEDTAVYYCAIPYCSSSSCPLHWGQGTLVTVSS VL: QSELTQPPSASGSPGQSVTISCTGTSSDVGGYNYVSWYQQHPDKAPKLLIYEVTQRPSGVPDRFSGSRSGNTASLTVSGLQAEDEADYYCSSYAGRNNLYVFGPGTKVTVLG |
| no binding (tested: 2 µg/ml) | no binding (tested: 2 µg/ml) | 8.38 | A07 (antibody, human IgG4, V domains shown, whole human IgG4) VH: EVQLLESGGGLVQPGGSLRLSCAASGFTFSEYNMMWVRQAPGKGLEWVSVISPSGGGTLYADSVKGRFTISRDNSKNTLYLQMNSLRAEDTAVYYCARDLNNSSPPDSNDAFDIWGRGTMVTVSS VL: QSELTQPPSASGSPGQSVTISCTGTSSDVGGYNYVSWYQQHPDKAPKLLIYEVTQRPSGVPDRFSGSRSGNTASLTVSGLQAEDEADYYCSSYAGRNNLYVFGPGTKVTVLG |
| no binding (tested: 2 µg/ml) | no binding (tested: 2 µg/ml) | 2.5 | A09 (antibody, human IgG4, V domains shown, whole human IgG4) VH: EVQLLESGGGLVQPGGSLRLSCAASGFTFSWYDMYWVRQAPGKGLEWVSSIYSSGGYTAYADSVKGRFTISRDNSKNTLYLQMNSLRAEDTAVYYCAKDRDPCSRTTCYNWFDPWGQGTLVTVSS VL: QSELTQPPSASGTPGQRVTISCSGGSSNIGSNFVYWYRQLPGTAPKLLIYRNYQRPSGVPDRFSGSKSGTSASLAISGLLSEDEADYYCAAWDDNVGGVFGSGTKVTVLG |
| no binding (tested: 2 µg/ml) | no binding (tested: 2 µg/ml) | 3.3 | D02 (antibody, human IgG4, V domains shown, whole human IgG4) VH: EVQLLESGGGLVQPGGSLRLSCAASGFTFSWYDMAWVRQAPGKGLEWVSRIVPSGGHTSYADSVKGRFTISRDNFKNTLYLQMNSLRAEDTAVYYCARRASRPEFFDYWGQGALVTVSS VL: DIQMTQSPSFLSASVGDRVTITCRASQGISTYLAWYQQKPGKAPKVLIYTASTLQSGVPSRFSGSGSGTEFTLTISSLQPEDFATYYCQQSYITPPEVTFGPGTKVDIKR |
| no binding (tested: 2 µg/ml) | no binding (tested: 2 µg/ml) | 3.3 | D07 (antibody, human IgG4, V domains shown, whole human IgG4) VH: EVQLLESGGGLVQPGGSLRLSCAASGFTFSEYNMFWVRQAPGKGLEWVSYIYSSGGSTDYADSVKGRFTISRDNSKNTLYLQMNSLRAEDTAVYYCARVGIAARPFDPWGQGTLVTVSS VL: QSELTQPASVSGSPGQSITISCTGTNSDIGGYNYVSWYQQHPGKVPKLLIFEVNNRPSGVSSRFSGSKSGDTASLTISGLQPEDEAVYYCGSFTVSVTYVFGTGTKVTVLG |
| no binding (tested: 2 µg/ml) | no binding (tested: 2 µg/ml) | 4.3 | D09 (antibody, V domains shown, whole human IgG4) VH: EVQLLESGGGLVQPGGSLRLSCAASGFTFSHYNMHWVRQAPGKGLEWVSGIVSSGGNTGYADSVKGRFTISRDNSKNTLYLQMNSLRAEDTAVDYCARVVRYSSGWYYWFDPWGQGTLVTVSS VL: not shown |
| no binding (tested: 2 µg/ml) | no binding (tested: 2 µg/ml) | 3.17 | A04 (antibody, human IgG4, V domains shown, whole human IgG4) VH: EVQLLESGGGLVQPGGSLRLSCAASGFTFSEYNMAWVRQAPGKGLEWVSRIGSSGGKTKYADSVKGRFTISRDNSKNTLYLQMNSLRAEDTAVYYCARDEAPDYGDDAEAFDIWGQGTMVTVSS VL: QSALTQPPSASGTPGQRVTISCSGGYSNMGSNYAHWYQQVPGTAPKLLIYNNNQRPSGVPDRFSGSKSGTSASLAISGLRSEDEADYYCAAWDENLSGPVFGTGTKVTVLG |
| no binding (tested: 2 µg/ml) | no binding (tested: 2 µg/ml) | 1.94 | A08 (antibody, human IgG4, V domains shown, whole human IgG4) VH: EVQLLESGGGLVQPGGSLRLSCAASGFTFSVYDMPWVRQAPGKGLEWVSVIYPSGGFTRYADSVKGRFTISRDNSKNTLYLQMNSLRAEDTAVYYCAADPTIQLWAYYYGMDVWGQGTTVTVSS VL: QSVLTQPPSVSGTPGQRVTISCSGGYPNMGSNYAHWYQQLPGTAPKLLIYNDNQRPSGVPDRFSGSKSGTSASLAISGLRSEDEADYYCAAWDDSLSGPVFGGGTKLTVLG |
| no binding (tested: 2 µg/ml) | no binding (tested: 2 µg/ml) | 2.4 | D03 (antibody, human IgG4, V domains shown, whole human IgG4) VH: EVQLLESGGGLVQPGGSLRLSCAASGFTFSWYRMDWVRQAPGKGLEWVSVIGSSGGMTYYADSVKGRFTISRDNSKNTLYLQMNSLRAEDTAVYYCARRVVGGAGMDVWGQGTTVTVSS VL: DIQMTQSPSAMSASVGDRVTITCRASQVMINYIAWFRQKPGKVPERLIYAASTLQNGVPSRFSGSGSGTDFTLTISRLEPEDFAVYYCQHRITWPPALTFGGGTTVEIKR |
| no binding (tested: 2 µg/ml) | no binding (tested: 2 µg/ml) | 3 | D08 (antibody, human IgG4, V domains shown, whole human IgG4) VH: EVQLLESGGGLVQPGGSLRLSCAASGFTFSFYAMWWVRQAPGKGLEWVSRIYSSGGKTWYADSVKGRFTISRDNSKNTLYLQMNSLRAEDTAVYYCARVGMSTYAFDIWGQGTMVTVSS VL: DIQMTQSPSSLSASVGDRVTITCRASQSISDYLNWYQQKPGKAPDLLIYAASSLQSGVPSRFSGSGSGTDFTLTVSSLQPEDFATYFCQQSYSIPLTFGGGTKVEITR |
| no binding (tested: 2 µg/ml) | no binding (tested: 2 µg/ml) | 2.6 | D04 (antibody, human IgG4, V domains shown, whole human IgG4) VH: EVQLLESGGGLVQPGGSLRLSCAASGFTFSDYQMMWVRQAPGKGLEWVSRISPSGGMTRYADSVKGRFTISRDNSKNTLYLPMNSLRAEDTAVYYCARSGPYYFDYWGQGTLVTVSS VL: DIQMTQSPSSLSASVGDRVAITCRASQSIDTYLNWYQQKPGKAPKLLIYAASKLEDGVPSRFSGSGTGTDFTLTIRSLQPEDFASYFCQQSYSSPGITFGPGTKVEIKR |
| no binding (tested: 2 µg/ml) | no binding (tested: 2 µg/ml) | 2.48 | A05 (antibody, human IgG4, V domains shown, whole human IgG4) VH: EVQLLESGGGLVQPGGSLRLSCAASGFTFSVYSMNWVRQAPGKGLEWVSYIVPSGGNTPYADSVKGRFTISRDNSKNTLYLQMNSLRAEDTAVYYCARDGAATVDLDYWGQGTLVTVSS VL: DIQMTQSPSSLSLSPGERATLSCRASQSVSSYLAWYQQKPGQAPRLLIYDASNRATGIPARFSGSGSGTDFTLTISSLEPEDFAVYYCQQRSNWPRTFGGGTKVEIKR |
